# Laboratory results published in paper PMC3855536.
# B1: MqnA (TTHA0803) (Thermus thermophilus HB8) (protein)
# chain: MRPYVLGLPRYANVAPLHHFLRLEGFRVLHAVPAELNRLLLSGEVGLSLVSSYFYLKHQDSLGLLPDFSVAVLGRVYSVNLFHKGALPHLARVALTTESATSVALLKLLLKEAGAGPRYERREGGLELLSAYDGVLLIGDRAIKAYAALLPEVPETPHALPTRFGEVEVADLSTLWFQRTHLPFVFAVWAYRRENPPPKALVQALREARREGLGRLREVAEAEARRLGVHPLLLQHYLWNFRYHLEEPDRLGLKAFAEALGLPFAPMFYPE
# Substrate: C=C(O[C@@H]1C=C(C(=O)O)C=C[C@H]1O)C(=O)O
# Test: steady-state kinetics
# Type: biochemical, Thermus thermophilus
# Details: dehydration of chorismate to 12
protein,measurement,value
B1,Km,161.6 ± 7.1 µM
same,kcat,1.27 ± .02 s⁻¹
